The target of the experiment is Pin1-PPIase (isolated catalytic PPIase domain of Pin1, residues 46-163) (human, UniProt Q13526 46-163). Nature of the experiment: NMR titration.

Non-standard residues stand in square brackets, D forms with d. No end group written: not given here. pT = C[C@@H](OP(=O)(O)O)[C@H](N)C(=O)O

Pin1-PPIase (isolated catalytic PPIase domain of Pin1, residues 46-163), sequence (Q13526 46-163): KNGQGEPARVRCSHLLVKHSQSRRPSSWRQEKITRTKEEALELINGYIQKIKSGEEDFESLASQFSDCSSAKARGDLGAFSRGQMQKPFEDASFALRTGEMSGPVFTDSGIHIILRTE

As to GVVEVDAAV[pT]PEERHLSKMQQNGY (peptide, UniProt P05067-4 659-682, looked up) [pAPP659-682 (24-residue phosphopeptide, residues 659-682 of APP phosphorylated at T668)], the Kd (usually the equilibrium constant for the complex coming apart) is 1300 µM.
